Test results published in patent publication US20090280108A1, “SERUM AMYLOID A PROTEIN IN INFLAMMATION AND OBESITY” (priority 2004, published 2009).

What was measured:
[1] = test system: Primary human coronary vascular endothelial cells (HCVECs); assay: Cytokine release from SAA-treated human coronary vascular endothelial cells (Luminex / ELISA); assay type: cell-based
Protocol: (§1) Cell Culture Conditions. Primary human coronary artery endothelial cells (HCAECs) were purchased from Cambrex (Walkersville, Md.) and grown in endothelial cell basal medium-2 (EBM-2) supplemented with EGM-2 BulletKit. Experiments were conducted between the third to fifth passages. RAW264 cells (ATCC, Manassas, Va.) were grown in RPMI medium 1640 supplemented with about 10% fetal bovine serum. These cells were seeded on 6-well tissue culture plates at about 75% confluence and grown to about 90-95% confluence. The growth medium was replaced with supplement-free media (EBM-2 basal medium for HCAECs and RPMI1640 for RAW264). About one hour after the medium change, the cells were treated with recombinant human SAA (Peprotech, Rocky Hill, N.J.). The endotoxin level for this commercial preparation is advertised as less than about 0.1 ng/μg protein. The conditioned medium was collected about 8 hours after the SAA treatment by centrifugation at about 2,000×g for about 5 minutes and frozen until use for cytokine analysis.
(§2) Cytokine analysis. […] The intra- and inter-assay CV is about 5% and about 8% respectively. […] All samples were assayed in duplicate.

[2] = test system: mouse monocyte cell line RAW264; assay: Cytokine release from SAA-treated RAW264 monocytes (Luminex); assay type: cell-based; conditions: RAW264 cells
Protocol: as §1, §2

[3] = test system: adipose tissue A-SAA production; assay: Adipose organ culture: direct effect on adipose A-SAA production in vitro; conditions: rosiglitazone 1 μM; dexamethasone 25 nM and insulin 7 nM; about 48 hours, SAA production between 24 to 48 hours; n=3
[4] = SAA 0.47 or 2.3 μg/ml, about 8 hours, serum-free medium, dose-dependent

lipopolysaccharide [LPS, reference compound]
did not stimulate cytokine secretion: cytokine secretion (endotoxin contamination control) ([1]; LPS 1 ng/ml) | cytokine secretion (endotoxin contamination control) ([2]; LPS 1 ng/ml)

CN(CCOc1ccc(CC2SC(=O)NC2=O)cc1)c1ccccn1 (centres unmarked) [rosiglitazone]
about 70%: reduction of insulin/dexamethasone stimulation of A-SAA secretion in the media [3]

B1: A-SAA: recombinant human SAA (Peprotech); acute-phase serum amyloid A used to treat cells (protein, UniProt P0DJI8 19-122, looked up)
Serum amyloid A-1 protein: RSFFSFLGEAFDGARDMWRAYSDMREANYIGSDKYFHARGNYDAAKRGPGGAWAAEVITDARENIQRFFGHGAEDSLADQAANEWGRSGKDPNHFRPAGLPEKY
dramatically stimulated: release of IL-6 [1, 4] | release of IL-8 [1, 4] | release of MCP-1 [1, 4] | release of plasminogen activator inhibitor-1 (PAI-1) [1, 4] | release of IL-6 [2, 4] | release of IL-8 [2, 4] | release of RANTE [2, 4] | release of TNFα [2, 4]
